Patent EP4667489A1 (Kyinno Biotechnology Co., Ltd., dated 2025)
Substitutions are numbered along the chain they refer to. Names and notes keep the numbering of the source. Each block holds one binder with its values, some of them ahead of it.

Experiments:
[1] = biological target: T1, human PDL1 expressed on 293T-PDL1 cells (human, UniProt Q9NZQ7 19-290); assay: cell-based or functional assay
[2] = biological target: T2, human EGFR expressed on CT26-EGFR cells (human, UniProt P00533 25-1210); assay: cell-based or functional assay
[3] = biological target: T1, human PDL1 expressed on 293T-PDL1 cells; assay: flow cytometry on 293T-PDL1 cells
[4] = biological target: T3, PDL1-His (Kyinno, Cat No.: KP-1022) (UniProt Q9NZQ7 19-238, limits assumed); assay: BLI (ForteBio Octet), PDL1-His as mobile phase
T3 construct: not shown: His tag
T3 sequence (Q9NZQ7 19-238 limits assumed): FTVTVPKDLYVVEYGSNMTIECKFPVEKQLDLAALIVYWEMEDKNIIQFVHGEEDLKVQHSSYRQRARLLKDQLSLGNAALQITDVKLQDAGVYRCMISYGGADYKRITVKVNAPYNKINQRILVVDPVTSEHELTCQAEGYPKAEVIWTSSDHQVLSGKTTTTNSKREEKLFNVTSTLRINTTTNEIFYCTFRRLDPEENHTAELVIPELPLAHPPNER

[5] = biological target: T2, human EGFR expressed on CT26-EGFR cells; assay: flow cytometry, blocking of EGF-mFc binding to CT26-EGFR cells
[6] = biological target: T4, EGFR-His (Kyinno, Cat No.: KP-1150) (UniProt P00533 25-645, limits assumed); assay: BLI (ForteBio Octet), EGFR-His as mobile phase
T4 construct: bought; not shown: His tag

[7] = biological target: T2, human EGFR expressed on CT26-EGFR cells; assay: flow cytometry on CT26-EGFR cells
[8] = biological target: T5, PDL1-mFc (fusion protein of the human PDL1 extracellular domain and mouse Fc; Kyinno, Cat No.: KP-1008) (human; mouse, UniProt Q9NZQ7 19-238); assay: flow cytometry, blocking of PDL1-mFc binding to 293T-PD1 cells
T5 construct: extracellular domain; bought; also called human PDL1-mFc; not shown: mouse Fc
T5 sequence (Q9NZQ7 19-238): as the sequence (Q9NZQ7 19-238 limits assumed) above

[9] = biological target: T6, LAG3-mFc (fusion protein of the human LAG3 extracellular domain and mouse IgG2a-Fc) (human; mouse, UniProt P18627 23-450); assay: flow cytometry, blocking of LAG3-mFc binding to Daudi cells
T6 construct: extracellular domain; also called human LAG3-mFc; not shown: mouse IgG2a-Fc, Genbank AAH31470.1
T6 sequence (looked up): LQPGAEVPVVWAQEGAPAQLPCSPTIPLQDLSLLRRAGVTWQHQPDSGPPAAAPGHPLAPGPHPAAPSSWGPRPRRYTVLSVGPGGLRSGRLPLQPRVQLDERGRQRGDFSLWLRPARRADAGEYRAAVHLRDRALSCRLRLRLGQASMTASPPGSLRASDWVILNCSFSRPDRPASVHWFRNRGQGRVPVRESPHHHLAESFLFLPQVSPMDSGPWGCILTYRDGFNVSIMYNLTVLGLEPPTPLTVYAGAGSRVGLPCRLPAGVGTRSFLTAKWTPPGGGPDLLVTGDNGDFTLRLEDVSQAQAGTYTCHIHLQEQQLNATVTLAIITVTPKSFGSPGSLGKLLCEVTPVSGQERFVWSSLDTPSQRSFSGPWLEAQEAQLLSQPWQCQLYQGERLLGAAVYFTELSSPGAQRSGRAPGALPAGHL

[10] = biological target: T7, human LAG3 expressed on 293T-LAG3 cells (human, UniProt P18627 23-525); assay: flow cytometry on 293T-LAG3 cells
T7 construct: whole, on cells; 293T cells stably expressing human LAG3 (Kyinno KC-0214); also called LAG3-expressing cells
T7 sequence (looked up): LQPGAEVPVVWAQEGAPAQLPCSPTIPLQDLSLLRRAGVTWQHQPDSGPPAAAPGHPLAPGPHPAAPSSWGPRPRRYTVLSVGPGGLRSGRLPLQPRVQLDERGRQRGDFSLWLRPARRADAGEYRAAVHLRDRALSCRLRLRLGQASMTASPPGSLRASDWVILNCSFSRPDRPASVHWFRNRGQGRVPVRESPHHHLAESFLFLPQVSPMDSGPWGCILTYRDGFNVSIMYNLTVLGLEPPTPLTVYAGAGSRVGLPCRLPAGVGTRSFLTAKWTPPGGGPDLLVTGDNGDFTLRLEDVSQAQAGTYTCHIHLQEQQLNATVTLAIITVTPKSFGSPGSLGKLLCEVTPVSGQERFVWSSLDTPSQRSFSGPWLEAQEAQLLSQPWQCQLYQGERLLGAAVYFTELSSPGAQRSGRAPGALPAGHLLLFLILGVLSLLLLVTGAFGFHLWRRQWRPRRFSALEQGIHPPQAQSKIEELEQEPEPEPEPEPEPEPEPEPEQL

[11] = biological target: T8, LAG3-His (ACRO, Cat No.: LA3-H5222) (UniProt P18627 23-450); assay: BLI (ForteBio Octet), LAG3-His as mobile phase
T8 construct: bought protein; not shown: His tag
T8 sequence (looked up): T6 sequence (looked up)

[12] = biological target: T9, human PD1 expressed on 293T-PD1 cells (human, UniProt Q15116 25-288); assay: flow cytometry on 293T-PD1 cells
T9 construct: whole, on cells; 293T cells stably expressing human PD1 (Kyinno KC-0204); also called PD1-expressing cells; Jurkat NFAT-PD1-luc cells
T9 sequence (Q15116 25-288): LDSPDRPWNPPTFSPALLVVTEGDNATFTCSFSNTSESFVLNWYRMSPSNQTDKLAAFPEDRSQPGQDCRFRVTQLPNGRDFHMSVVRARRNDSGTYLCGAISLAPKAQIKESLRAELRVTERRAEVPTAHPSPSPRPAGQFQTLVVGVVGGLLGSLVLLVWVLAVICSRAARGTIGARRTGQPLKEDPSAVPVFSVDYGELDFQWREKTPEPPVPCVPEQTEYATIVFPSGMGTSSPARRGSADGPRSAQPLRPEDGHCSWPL

[13] = biological target: T10, PD1-His (Kyinno, Cat No.: KP-1023) (UniProt Q15116 25-167, limits assumed); assay: BLI (ForteBio Octet), PD1-His as mobile phase
T10 construct: bought protein; not shown: His tag
T10 sequence (Q15116 25-167 limits assumed): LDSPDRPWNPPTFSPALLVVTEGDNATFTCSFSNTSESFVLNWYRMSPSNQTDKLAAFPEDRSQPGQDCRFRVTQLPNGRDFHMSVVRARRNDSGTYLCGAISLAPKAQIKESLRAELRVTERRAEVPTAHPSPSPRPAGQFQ

[14] = biological target: T11, PD1-mFc (fusion protein of the human PD1 extracellular domain and mouse IgG2a-Fc) (human; mouse, UniProt Q15116 25-170); assay: flow cytometry, blocking of PD1-mFc binding to 293T-PDL1 cells
T11 construct: extracellular domain; not shown: mouse IgG2a-Fc, Genbank AAH31470.1
T11 sequence (Q15116 25-170): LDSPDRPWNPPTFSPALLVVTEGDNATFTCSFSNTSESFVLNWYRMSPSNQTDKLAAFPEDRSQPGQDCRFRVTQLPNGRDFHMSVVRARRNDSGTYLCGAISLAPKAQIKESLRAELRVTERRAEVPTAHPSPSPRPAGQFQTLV

T1 sequence (Q9NZQ7 19-290): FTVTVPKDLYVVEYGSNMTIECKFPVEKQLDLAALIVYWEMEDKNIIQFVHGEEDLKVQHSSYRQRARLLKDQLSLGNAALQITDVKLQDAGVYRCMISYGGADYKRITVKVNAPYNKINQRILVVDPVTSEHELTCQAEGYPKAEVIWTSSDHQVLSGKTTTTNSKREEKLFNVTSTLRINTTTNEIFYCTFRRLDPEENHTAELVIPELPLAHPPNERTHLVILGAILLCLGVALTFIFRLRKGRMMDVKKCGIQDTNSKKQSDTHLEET

B2: KA-1782 H28G2-7V4-hIgG4M (antibody, V domains shown)
VH: QVQLQESGPGLVKPSETLSLTCTVSGYSFTSGYYWNWIRQPPGKGLEWIGYVSYFGTANYNPALKNRVTISRDTSKNQFSLKLSSVTAADTAVYYCARGEEWDWSFDVWGQGTTVTVSS
VL: DIQITQSPSSLSASVGDRVTITCSATSGVSYMHWYQQKPGKAPKRLIYDTSRLASGVPSRFSGSGSGTDYTLTISSLQPEDFATYYCQQWSSNPPYTFGQGTRLEIKR
notes: anti-LAG3 humanized antibody, human IgG4 (S228P) / kappa
IC50 [9]: 0.476 µg/mL
EC50 [10]: 0.0674 µg/mL
Kd [11]: 0.174 nM
koff [11]: 0.000153 s⁻¹
kon [11]: 881000 M⁻¹ s⁻¹

B5: KA-1773 M107D12-10CLC1-hIgG4M (antibody, V domains shown)
VH: QVQLKESGGGLVKPGGSLKLSCAASGFTFSDYGMHWVRQAPEKGLEWVAYISSGSYTIYYADTVRDRFTISRDSAKNTLFLQMTSLRSEDTAMYYCVRRGPGYFGSTALDYWGQGTTLTVSS
VL: QIVLTQSPAIMSASPGEKVTMTCSATSGVSYMHWYQQKSGTSPKRWIYDTSRLASGVPARFSGSGSGTSYSLTISSMEAEDAATYYCQQWSSNPPYTFGSGTKLEIKR
notes: anti-PD1 chimeric antibody, human IgG4 (S228P) / kappa
EC50 [12]: 0.265 µg/mL
IC50 [14]: 0.256 µg/mL

B6: KA-1728 M28G2-7CLC1-hIgG4M (antibody, V domains shown)
VH: DVKLQESGPGLVKPSQSLSLTCSVTGYSFTSGYYWNWIRLFPGNKLEWMGYVSYFGTNNYNPSLKNRFSITRDTSKNQFFLKLNSVSTEDTATYYCARGEEWDWSFDVWGTGTTVTVSS
VL: B5 VL
IC50 [9]: 0.805 µg/mL
EC50 [10]: 0.118 µg/mL

B7: KA-1774 M107D12-10CLC2-hIgG4M (antibody, V domains shown)
VH: B5 VH
VL: B5 VL with T26S, G28S, R52K
EC50 [12]: 0.272 µg/mL
IC50 [14]: 0.218 µg/mL

B8: KA-1733 M28G2-7CLC2-hIgG4M (antibody, V domains shown)
VH: B6 VH
VL: B5 VL with T26S, G28S, R52K
IC50 [9]: 0.563 µg/mL
EC50 [10]: 0.0649 µg/mL

Next, values leading:

IC50, luciferase reporter (procedure of Example 30) [1]: 0.372 nM
IC50, luciferase reporter (procedure of Example 34) [2]: 1.01 nM
EC50 [3]: 0.422 µg/mL
Kd [4]: 0.464 nM
koff [4]: 0.000426 s⁻¹
kon [4]: 918000 M⁻¹ s⁻¹
IC50 [5]: 0.0155 µg/mL
Kd [6]: 4.21 nM
koff [6]: 0.00295 s⁻¹
kon [6]: 701000 M⁻¹ s⁻¹
EC50 [7]: 0.0393 µg/mL
IC50 [8]: 0.122 µg/mL
B1: KA-2072 H22A12×58E3-CLC01 (bispecific antibody, human IgG1, kappa)
heavy 1: not shown
heavy 2: not shown
light: DIQITQSPSSLSASVGDRVTITCSATSGVSYMHWYQQKPGKAPKRLIYDTSRLASGVPSRFSGSGSGTDYTLTISSLQPEDFATYYCQQWSSNPPYTFGQGTRLEIKRTVAAPSVFIFPPSDEQLKSGTASVVCLLNNFYPREAKVQWKVDNALQSGNSQESVTEQDSKDSTYSLSSTLTLSKADYEKHKVYACEVTHQGLSSPVTKSFNRGEC
notes: EGFR×PDL1 bispecific; first heavy chain targets EGFR (hIgG1 Knob), second targets PDL1 (hIgG1 Hole); common light chain 1

EC50 [12]: 0.193 µg/mL
Kd [13]: 6.96 nM
koff [13]: 0.00143 s⁻¹
kon [13]: 205000 M⁻¹ s⁻¹
IC50 [14]: 0.158 µg/mL
B3: KA-1807 H107D12-10V4-hIgG4M (antibody, V domains shown)
VH: B5 VH with K5V, K19R, V37I, E42G, T78S, F80Y, T84N, S88A, M93V, L118V
VL: B2 VL
notes: anti-PD1 humanized antibody, human IgG4 (S228P) / kappa; also called KA-1807 H107D12-10V4-hlgG4M

IC50, luciferase reporter (procedure of Example 30) [1]: 0.429 nM
IC50, luciferase reporter (procedure of Example 34) [2]: 1.05 nM
EC50 [3]: 0.521 µg/mL
Kd [4]: 0.602 nM
koff [4]: 0.00126 s⁻¹
kon [4]: 2.09e+06 M⁻¹ s⁻¹
IC50 [5]: 0.0123 µg/mL
Kd [6]: 5.64 nM
koff [6]: 0.00449 s⁻¹
kon [6]: 796000 M⁻¹ s⁻¹
EC50 [7]: 0.0358 µg/mL
IC50 [8]: 0.129 µg/mL
B4: KA-2073 H22A12×58E3-CLC02 (bispecific antibody, human IgG1, kappa)
heavy 1: not shown
heavy 2: not shown
light: DIQLTQSPSTLSASVGDRVTITCSATSSIGYMHWYQQKPGTSPKRWIYDTSKLASGVPSRFSGSGSGTEYTLTISSLQPDDFATYYCQLWSSDPPYTFGQGTRLEIKRTVAAPSVFIFPPSDEQLKSGTASVVCLLNNFYPREAKVQWKVDNALQSGNSQESVTEQDSKDSTYSLSSTLTLSKADYEKHKVYACEVTHQGLSSPVTKSFNRGEC
notes: EGFR×PDL1 bispecific; first heavy chain targets EGFR (hIgG1 Knob), second targets PDL1 (hIgG1 Hole); common light chain 3
